Source: patent US5747449A (Corvas International, Inc., priority 1993, dated 1998)

Target: Factor Xa (Homo sapiens, UniProt P00742)
Experiment: Factor Xa amidolytic assay (chromogenic substrate)
Assay type: biochemical
Settings: mutants produced in E. coli; read-out: Ki (nM), inhibition constant for Factor Xa
Protocol: Trypsin, Factor Xa, thrombin, Factor XIIa and plasmin amidolytic assays […]
Briefly, the following were added to a 96-well microtiter plate well (see Table below):
50 μl inhibitor (various concentrations as required, diluted in TESA);
50 μl protease (suitable concentration, diluted in TBSA)
The plate was incubated at room temperature for 30 minutes or for 2 hours (Factor Xa); and 50 μl chromogenic substrate was added (as required, diluted in water). The initial rate was measured at […] during 10-30 minutes at room temperature.
To determine the inhibition constants, the initial rate (vi) was measured at various inhibitor ([It ]) and substrate concentrations, and the apparent inhibition constant (Ki) was determined by fitting the data obtained at each substrate concentration with the following equation: […]
vi /vo ={([Et ]-[It ]-Ki^*) +[([It […]
where vo is the uninhibited initial rate and [Et ] is the total enzyme concentration. Extrapolation of Ki^* values to zero substrate concentrations yields a value for the real inhibition constant.

Chain of Factor Xa (P00742 235-488 limits assumed): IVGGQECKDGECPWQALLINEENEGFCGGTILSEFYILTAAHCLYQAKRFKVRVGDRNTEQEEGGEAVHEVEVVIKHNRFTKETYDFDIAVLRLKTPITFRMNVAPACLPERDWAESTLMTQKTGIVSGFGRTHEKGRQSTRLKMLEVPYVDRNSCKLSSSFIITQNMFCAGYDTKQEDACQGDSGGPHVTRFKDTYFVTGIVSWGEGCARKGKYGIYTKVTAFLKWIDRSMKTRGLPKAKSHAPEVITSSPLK
Chain of Factor Xa (P00742 41-179 partner limits assumed): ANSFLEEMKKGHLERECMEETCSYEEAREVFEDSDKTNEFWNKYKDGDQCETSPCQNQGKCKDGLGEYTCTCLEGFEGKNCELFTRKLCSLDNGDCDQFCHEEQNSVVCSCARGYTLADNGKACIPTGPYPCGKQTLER

## 5L84: BPTI with substitutions 11Glu 13Leu 15Arg 17Leu 18His 19Lys 34Tyr 39Phe 46Glu
  Ki: 2 nM

## 5L69: BPTI with substitutions 11Pro 13Ile 15Arg 17Leu 18His 19Lys 34Tyr 39Met 46Glu
  Ki: 5 nM

## 3L55: BPTI with substitutions 13Ile 15Arg 17Ala 18Phe 19Asn 39Leu 46Glu
  Ki: 5 nM

## 5L65: BPTI with substitutions 11Ser 13Leu 15Arg 17Leu 18His 19Lys 34Tyr 39Tyr 46Glu
  Ki: 5 nM

## 5L68: BPTI with substitutions 11Ser 13Leu 15Arg 17Leu 18His 19Lys 34Tyr 39Phe 46Glu
  Ki: 1.5 nM

## 5L48: BPTI with substitutions 11Glu 13Trp 15Arg 17Leu 18His 19His 34Ile 39Gly 46Glu
  Ki: 4 nM

## 3L60: BPTI with substitutions 13Ile 15Arg 17Tyr 18Tyr 19Lys 39Leu 46Glu
  Ki: 4 nM
